In patent publication US20170306031A1 (NGM BIOPHARMACEUTICALS, published 2017):
Read-outs that look alike come from different tables or passages of the source.

T1: human GFRAL expressed on cells (human, UniProt Q6UXV0 20-394)
T1 sequence: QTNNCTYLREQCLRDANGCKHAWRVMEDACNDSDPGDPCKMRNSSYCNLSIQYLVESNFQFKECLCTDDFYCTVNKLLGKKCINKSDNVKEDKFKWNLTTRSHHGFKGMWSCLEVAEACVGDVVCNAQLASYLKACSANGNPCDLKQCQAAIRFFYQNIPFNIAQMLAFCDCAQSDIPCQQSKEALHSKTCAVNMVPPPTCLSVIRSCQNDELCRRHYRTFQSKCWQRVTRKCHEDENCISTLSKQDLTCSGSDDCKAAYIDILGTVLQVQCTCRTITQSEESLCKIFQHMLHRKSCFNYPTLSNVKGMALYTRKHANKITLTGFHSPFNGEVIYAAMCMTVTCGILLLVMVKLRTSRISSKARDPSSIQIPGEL

T2: mouse GFRAL expressed on cells (mouse, UniProt Q6SJE0 20-393)
T2 sequence: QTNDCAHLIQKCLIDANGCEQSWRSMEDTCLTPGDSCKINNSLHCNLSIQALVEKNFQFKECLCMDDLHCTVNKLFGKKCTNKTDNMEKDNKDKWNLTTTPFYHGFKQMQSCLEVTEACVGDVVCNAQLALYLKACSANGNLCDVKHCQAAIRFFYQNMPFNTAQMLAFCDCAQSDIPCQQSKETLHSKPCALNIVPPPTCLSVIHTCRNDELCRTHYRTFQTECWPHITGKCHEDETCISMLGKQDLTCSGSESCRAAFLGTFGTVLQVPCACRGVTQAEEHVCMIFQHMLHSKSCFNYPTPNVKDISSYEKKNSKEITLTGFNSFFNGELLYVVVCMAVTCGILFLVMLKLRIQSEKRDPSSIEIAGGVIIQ

T3: human GFRAL (analyte in Biacore assays) (human, UniProt Q6UXV0 19-351, limits assumed)
T3 construct: injected in solution over captured antibody; also called hGFRAL
T3 sequence: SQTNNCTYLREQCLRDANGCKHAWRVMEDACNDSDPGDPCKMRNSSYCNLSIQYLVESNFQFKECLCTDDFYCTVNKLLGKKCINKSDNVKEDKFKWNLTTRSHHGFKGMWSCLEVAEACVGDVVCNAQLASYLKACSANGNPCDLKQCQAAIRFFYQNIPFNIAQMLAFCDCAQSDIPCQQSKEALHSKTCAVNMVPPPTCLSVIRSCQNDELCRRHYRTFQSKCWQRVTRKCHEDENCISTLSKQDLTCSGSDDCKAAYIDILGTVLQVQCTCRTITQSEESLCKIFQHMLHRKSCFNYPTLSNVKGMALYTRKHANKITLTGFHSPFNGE

T4: mouse GFRAL (analyte in Biacore assays) (mouse, UniProt Q6SJE0 20-349, limits assumed)
T4 construct: injected in solution over captured antibody
T4 sequence: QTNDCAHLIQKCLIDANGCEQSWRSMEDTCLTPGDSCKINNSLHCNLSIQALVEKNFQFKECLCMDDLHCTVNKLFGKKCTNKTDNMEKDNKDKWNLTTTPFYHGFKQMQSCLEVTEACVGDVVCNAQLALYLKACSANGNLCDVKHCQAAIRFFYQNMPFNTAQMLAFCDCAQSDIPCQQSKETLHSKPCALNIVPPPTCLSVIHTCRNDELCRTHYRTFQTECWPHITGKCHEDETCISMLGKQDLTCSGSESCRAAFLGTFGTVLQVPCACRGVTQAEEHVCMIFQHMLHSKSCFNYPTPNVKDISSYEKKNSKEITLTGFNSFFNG


Experiments:
[1] = molecular target: T1, human GFRAL expressed on cells; experiment: cell-based or functional assay
[2] = molecular target: T2, mouse GFRAL expressed on cells; experiment: cell-based or functional assay
[3] = molecular target: T1, human GFRAL expressed on cells; experiment: cell-based or functional assay; remark: listed apart in the source
[4] = molecular target: T1, human GFRAL expressed on cells; experiment: cell-based or functional assay; remark: listed apart in the source
[5] = molecular target: T3, human GFRAL (analyte in Biacore assays); experiment: Biacore SPR, antibody captured, GFRAL injected
[6] = molecular target: T4, mouse GFRAL (analyte in Biacore assays); experiment: Biacore SPR, antibody captured, GFRAL injected
[7] = molecular target: T3, human GFRAL (analyte in Biacore assays); experiment: Biacore SPR, antibody captured, human GFRAL injected
Procedure, shortened: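 Purified humanized antibodies captured (~100 RU) on anti-mouse Fc immobilized by amine coupling on a CM5 chip, with a reference flow cell.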

[8] = molecular target: T1, human GFRAL expressed on cells; experiment: cell-based or functional assay; remark: listed apart in the source
[9] = molecular target: T1, human GFRAL expressed on cells; experiment: cell-based or functional assay; remark: listed apart in the source

Row | Binder | IC50, ELK1-luciferase reporter (hGFRAL/hRET) [4] [nM] | Kd [7] [nM] | IC50, ELK1-luciferase reporter (hGFRAL/hRET) [8] [nM] | IC50, ERK phosphorylation in U2OS hGFRAL/hRET cells [9] [nM] | also measured
1 | antibody designated 5F12 (antibody, V domains shown, mouse hybridoma monoclonal; also called 5F12 Hybridoma) VH: QVQLKQSGTELVRPGASVKLSCKASGYTFTDYYINWVKQRPGQGLEWIARIYPGNGNTYHNEKFKGKATLTAEKSSSTAYMQLSSLTSEDSAVYFCAREGLYYDYDRYFDYWGQGTALTVSS VL: NIVLTQSPASLAVSLGQRATISCRASESVDTYGNSFMHWYQQKPGQPPKLLIYLASNLESGVPARFSGSGSRTDFTLTIDPVEADDAATYYCHQNNEDPPAFGGGTKLEIK | 5.4 | 0.038 |  |  | IC50, ELK1-luciferase reporter (hGFRAL/hRET) [1]: 0.834 nM; IC50, ELK1-luciferase reporter (mGFRAL/mRET) [2]: 6.28 nM; IC50, ERK phosphorylation in U2OS hGFRAL/hRET cells [3]: 0.06 nM; Kd [5]: < 0.1 nM; koff [5]: ~1e-05 s⁻¹; Kd [6]: 2.2 nM; koff [6]: 0.0009 s⁻¹
2 | humanized anti-GFRAL antibody HC-375e/LC-375g (antibody, IgG1, V domains shown, humanized 5F12) VH: QVQLVQSGAEVKKPGSSVKVSCKASGYTFTDYYINWVRQAPGQGLEWMGRIYPGNGNTYHNEKFKGRATLTADESTSTAYMELSSLRSEDTAVYYCAREGLYYDYDRYFDYWGQGTLVTVSS VL: DIVLTQSPDSLAVSLGERATINCRASESVDTYGNSFMHWYQQKPGQPPKLLIYLASNLESGVPDRFSGSGSRTDFTLTISSLQAEDVAVYYCHQNNEDPPAFGGGTKVEIK | 2.27 | 0.081 |  |  | 
3 | humanized anti-GFRAL antibody HC-375d/LC-375c (antibody, IgG1, V domains shown, humanized 5F12) VH: QVQLVQSGAEVKKPGSSVKVSCKASGYTFTDYYINWVRQAPGQGLEWIGRIYPGNGNTYHNEKFKGRATLTADKSTSTAYMELSSLRSEDTAVYYCAREGLYYDYDRYFDYWGQGTLVTVSS VL: DIQMTQSPSSLSASVGDRVTITCRASESVDTYGNSFMHWYQQKPGKAPKLLIYLASNLESGVPSRFSGSGSGTDFTLTISSLQPEDFATYYCHQNNEDPPAFGGGTKVEIK | 3.28 | 0.075 |  |  | 
4 | humanized anti-GFRAL antibody HC-375d/LC-375j (antibody, IgG1, V domains shown, humanized 5F12) VH: QVQLVQSGAEVKKPGSSVKVSCKASGYTFTDYYINWVRQAPGQGLEWIGRIYPGNGNTYHNEKFKGRATLTADKSTSTAYMELSSLRSEDTAVYYCAREGLYYDYDRYFDYWGQGTLVTVSS VL: DIVLTQSPLSLPVTLGQPASISCRASESVDTYGNSFMHWYQQRPGQSPRLLIYLASNLESGVPDRFSGSGSRTDFTLKISRVEAEDVGVYYCHQNNEDPPAFGGGTKVEIK | 3.11 | 0.046 |  |  | 
5 | humanized anti-GFRAL antibody HC-375d/LC-375i (antibody, IgG1, V domains shown, humanized 5F12) VH: QVQLVQSGAEVKKPGSSVKVSCKASGYTFTDYYINWVRQAPGQGLEWIGRIYPGNGNTYHNEKFKGRATLTADKSTSTAYMELSSLRSEDTAVYYCAREGLYYDYDRYFDYWGQGTLVTVSS VL: DVVLTQSPLSLPVTLGQPASISCRASESVDTYGNSFMHWFQQRPGQSPRLLIYLASNLESGVPDRFSGSGSGTDFTLKISRVEAEDVGVYYCHQNNEDPPAFGGGTKVEIK | 2.75 | 0.062 |  |  | 
6 | humanized anti-GFRAL antibody HC-375e/LC-375j (antibody, IgG1, V domains shown, humanized 5F12) VH: QVQLVQSGAEVKKPGSSVKVSCKASGYTFTDYYINWVRQAPGQGLEWMGRIYPGNGNTYHNEKFKGRATLTADESTSTAYMELSSLRSEDTAVYYCAREGLYYDYDRYFDYWGQGTLVTVSS VL: DIVLTQSPLSLPVTLGQPASISCRASESVDTYGNSFMHWYQQRPGQSPRLLIYLASNLESGVPDRFSGSGSRTDFTLKISRVEAEDVGVYYCHQNNEDPPAFGGGTKVEIK | 4.01 | 0.048 |  |  | 
7 | humanized anti-GFRAL antibody HC-375h/LC-375j (antibody, IgG1, V domains shown, humanized 5F12) VH: QVQLVQSGAEVKKPGASVKVSCKASGYTFTDYYINWVRQAPGQRLEWIARIYPGNGNTYHNEKFKGRATLTRDKSASTAYMELSSLRSEDTAVYYCAREGLYYDYDRYFDYWGQGTLVTVSS VL: DIVLTQSPLSLPVTLGQPASISCRASESVDTYGNSFMHWYQQRPGQSPRLLIYLASNLESGVPDRFSGSGSRTDFTLKISRVEAEDVGVYYCHQNNEDPPAFGGGTKVEIK | 7.29 | 0.06 |  |  | 
8 | humanized anti-GFRAL antibody HC-375e/LC-375c (antibody, IgG1, V domains shown, humanized 5F12) VH: QVQLVQSGAEVKKPGSSVKVSCKASGYTFTDYYINWVRQAPGQGLEWMGRIYPGNGNTYHNEKFKGRATLTADESTSTAYMELSSLRSEDTAVYYCAREGLYYDYDRYFDYWGQGTLVTVSS VL: DIQMTQSPSSLSASVGDRVTITCRASESVDTYGNSFMHWYQQKPGKAPKLLIYLASNLESGVPSRFSGSGSGTDFTLTISSLQPEDFATYYCHQNNEDPPAFGGGTKVEIK | 2.2 | 0.092 |  |  | 
9 | humanized anti-GFRAL antibody HC-344a/LC-344c (antibody, IgG1, V domains shown, humanized 3P10) VH: QVQLVQSGAEVKKPGSSVKVSCKASGYTFTDYGVIWVRQAPGQGLEWMGWINTYTGEPTYADDLKGRVTITADESTSTAYMELSSLRSEDTAVYYCARRYGPEDIDYWGQGTTVTVSS VL: DIVLTQSPLSLPVTLGQPASISCRASESVDNYGISFMSWFQQRPGQSPRLLIYAASHQGSGVPDRFSGSGSGTDFTLKISRVEAEDVGVYFCLQSKEVPWTFGGGTKVEIK |  | 0.012 | 7.26 | 5.13 | 
10 | humanized anti-GFRAL antibody HC-344h/LC-344c (antibody, V domains shown, humanized 3P10) VH: QIQLVQSGAEVKKPGSSVKVSCKASGYTFTDYGVIWVRQAPGQGLKWMGWINTYTGEPTYADDLKGRVTFTADESTSTAYMELSSLRSEDTAVYYCARRYGPEDIDYWGQGTTVTVSS VL: DIVLTQSPLSLPVTLGQPASISCRASESVDNYGISFMSWFQQRPGQSPRLLIYAASHQGSGVPDRFSGSGSGTDFTLKISRVEAEDVGVYFCLQSKEVPWTFGGGTKVEIK |  | < 0.01 | 29.4 | 15.1 | 
11 | humanized anti-GFRAL antibody HC-344h/LC-344h (antibody, IgG1, V domains shown, humanized 3P10) VH: QIQLVQSGAEVKKPGSSVKVSCKASGYTFTDYGVIWVRQAPGQGLKWMGWINTYTGEPTYADDLKGRVTFTADESTSTAYMELSSLRSEDTAVYYCARRYGPEDIDYWGQGTTVTVSS VL: DVVLTQSPLSLPVTLGQPASISCRASESVDNYGISFMSWFQQRPGQSPRLLIYAASHQGSGVPDRFSGSGSGTDFTLKISRVEAEDVGVYFCLQSKEVPWTFGGGTKVEIK |  | < 0.01 | 5.7 | 2.18 | 
12 | humanized anti-GFRAL antibody HC-344a/LC-344h (antibody, IgG1, V domains shown, humanized 3P10) VH: QVQLVQSGAEVKKPGSSVKVSCKASGYTFTDYGVIWVRQAPGQGLEWMGWINTYTGEPTYADDLKGRVTITADESTSTAYMELSSLRSEDTAVYYCARRYGPEDIDYWGQGTTVTVSS VL: DVVLTQSPLSLPVTLGQPASISCRASESVDNYGISFMSWFQQRPGQSPRLLIYAASHQGSGVPDRFSGSGSGTDFTLKISRVEAEDVGVYFCLQSKEVPWTFGGGTKVEIK |  | < 0.01 | 4.63 | 5.02 | 
